Earlier results on 35 substances are cited in PMC3721222.

Where two headings read alike, the source gives them in different places. A value given as a limit tells only on which side of the number the result lay.

Among the targets are Cathepsin L (UniProt P07711); Cathepsin B (UniProt P07858); Kv1.2 (UniProt P16389); Kv1.6 (UniProt P17658); Kv1.1 (UniProt Q09470); Metalloprotease 2 (UniProt P08253).
The target of series [1] is Trypsin (Bos taurus) (UniProt P00760).
Series [2] has the same target. This is another data set of the same source.
For series [3] the target is unchanged. The source holds these as a separate data set.
For series [4], the target named is Chymotrypsin (Bos taurus) (UniProt P00766).
In series [5] the target is Trypsin (Bos taurus) (UniProt P00760). This is another data set of the same source.
Series [6] concerns the target Plasmin (Homo sapiens) (UniProt P00747).
Chain of UniProt P00747 (P00747 581-810): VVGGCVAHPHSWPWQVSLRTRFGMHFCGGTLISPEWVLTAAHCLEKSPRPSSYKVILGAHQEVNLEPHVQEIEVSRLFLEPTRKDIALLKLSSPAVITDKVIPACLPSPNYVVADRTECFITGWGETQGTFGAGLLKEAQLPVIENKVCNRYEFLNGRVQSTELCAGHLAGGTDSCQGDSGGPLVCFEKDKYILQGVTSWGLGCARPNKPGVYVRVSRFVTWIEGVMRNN
Series [7] addresses Chymotrypsin (Bos taurus) (UniProt P00766). This is another data set of the same source.
Series [8] has as its target Trypsin (Bos taurus) (UniProt P00760). The source holds these as a separate data set.
For series [9] the target is unchanged. The source holds these as a separate data set.
For series [10] the target is unchanged. This is another data set of the same source.
The target is the same in series [11]. The source holds these as a separate data set.
Series [12] addresses Plasmin (Homo sapiens) (UniProt P00747). The source holds these as a separate data set.
Series [13] deals with Chymotrypsin (Bos taurus) (UniProt P00766). This is another data set of the same source.
Series [14] addresses Trypsin (Bos taurus) (UniProt P00760). This is another data set of the same source.
In series [15] the target is Papain (Carica papaya) (UniProt P00784).
Chain of UniProt P00784 (P00784 134-345): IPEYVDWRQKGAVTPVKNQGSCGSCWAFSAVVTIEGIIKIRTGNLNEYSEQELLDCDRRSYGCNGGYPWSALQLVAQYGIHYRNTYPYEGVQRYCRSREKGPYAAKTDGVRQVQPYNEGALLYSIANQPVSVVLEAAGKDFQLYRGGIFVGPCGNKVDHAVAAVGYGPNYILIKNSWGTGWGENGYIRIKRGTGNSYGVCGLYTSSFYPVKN
Series [16] addresses Trypsin (Bos taurus) (UniProt P00760). This is another data set of the same source.
Series [17] addresses Plasmin (Homo sapiens) (UniProt P00747). The source holds these as a separate data set.
Series [18] deals with Trypsin (Bos taurus) (UniProt P00760). This is another data set of the same source.
For series [19], the target named is Chymotrypsin (Bos taurus) (UniProt P00766). This is another data set of the same source.
Series [20] shares this target. This is another data set of the same source.
The target in series [21] is Trypsin (Bos taurus) (UniProt P00760). This is another data set of the same source.
Series [22] shares this target. The source holds these as a separate data set.
For series [23] the target is unchanged. This is another data set of the same source.
The target in series [24] is Papain (Carica papaya) (UniProt P00784). This is another data set of the same source.
Series [25] addresses Chymotrypsin (Bos taurus) (UniProt P00766). The source holds these as a separate data set.
In series [26] the target is Trypsin (Bos taurus) (UniProt P00760). This is another data set of the same source.
Series [27] shares this target. The source holds these as a separate data set.
The target of series [28] is Neutrophil elastase (Homo sapiens) (UniProt P08246).
In series [29] the target is Plasmin (Homo sapiens) (UniProt P00747). The source holds these as a separate data set.
The target in series [30] is Chymotrypsin (Bos taurus) (UniProt P00766). The source holds these as a separate data set.
Series [31] concerns the target Trypsin (Bos taurus) (UniProt P00760). The source holds these as a separate data set.
Series [32] addresses Pancreatic elastase (Sus scrofa) (UniProt P00772).
Chain of UniProt P00772 (P00772 27-266): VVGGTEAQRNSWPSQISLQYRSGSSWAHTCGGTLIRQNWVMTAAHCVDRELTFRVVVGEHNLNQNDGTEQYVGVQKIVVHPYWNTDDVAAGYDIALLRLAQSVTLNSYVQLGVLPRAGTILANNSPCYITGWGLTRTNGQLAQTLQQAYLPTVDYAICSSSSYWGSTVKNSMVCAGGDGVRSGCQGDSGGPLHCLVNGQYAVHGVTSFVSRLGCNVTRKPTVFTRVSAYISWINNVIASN
Series [33] concerns the target Chymotrypsin (Bos taurus) (UniProt P00766). The source holds these as a separate data set.
In series [34] the target is Plasmin (Homo sapiens) (UniProt P00747). This is another data set of the same source.
The target of series [35] is Trypsin (Bos taurus) (UniProt P00760). The source holds these as a separate data set.
Series [36] has as its target Chymotrypsin (Bos taurus) (UniProt P00766). The source holds these as a separate data set.
Series [37] deals with Trypsin (Bos taurus) (UniProt P00760). This is another data set of the same source.
Series [38] has the same target. The source holds these as a separate data set.
Series [39] addresses Chymotrypsin (Bos taurus) (UniProt P00766). The source holds these as a separate data set.
Series [40] addresses Leukocyte elastase (Homo sapiens) (UniProt P08246).
The target in series [41] is Trypsin (Bos taurus) (UniProt P00760). This is another data set of the same source.
Series [42] shares this target. This is another data set of the same source.
The target of series [43] is Chymotrypsin (Bos taurus) (UniProt P00766). This is another data set of the same source.

Chain of UniProt P00760 (P00760 149-246): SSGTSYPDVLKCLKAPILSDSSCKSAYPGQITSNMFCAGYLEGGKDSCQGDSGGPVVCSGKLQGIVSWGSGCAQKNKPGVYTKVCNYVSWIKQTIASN
Chain of UniProt P08253 (P08253 110-660): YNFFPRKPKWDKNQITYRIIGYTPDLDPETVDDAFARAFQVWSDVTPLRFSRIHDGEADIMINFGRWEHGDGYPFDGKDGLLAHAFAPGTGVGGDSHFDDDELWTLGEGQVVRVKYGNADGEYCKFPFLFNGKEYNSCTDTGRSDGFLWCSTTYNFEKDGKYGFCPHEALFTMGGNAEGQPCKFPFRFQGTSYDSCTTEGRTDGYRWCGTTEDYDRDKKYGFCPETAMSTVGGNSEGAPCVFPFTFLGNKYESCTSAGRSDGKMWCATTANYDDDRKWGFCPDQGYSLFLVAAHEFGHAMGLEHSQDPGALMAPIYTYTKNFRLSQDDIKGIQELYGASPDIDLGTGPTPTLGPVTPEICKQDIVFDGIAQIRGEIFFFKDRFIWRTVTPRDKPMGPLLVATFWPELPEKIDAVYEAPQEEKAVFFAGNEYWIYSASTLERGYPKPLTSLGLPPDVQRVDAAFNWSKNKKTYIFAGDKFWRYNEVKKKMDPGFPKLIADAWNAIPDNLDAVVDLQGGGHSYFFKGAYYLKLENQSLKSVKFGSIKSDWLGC
Chain of UniProt P17658 (P17658 whole entry): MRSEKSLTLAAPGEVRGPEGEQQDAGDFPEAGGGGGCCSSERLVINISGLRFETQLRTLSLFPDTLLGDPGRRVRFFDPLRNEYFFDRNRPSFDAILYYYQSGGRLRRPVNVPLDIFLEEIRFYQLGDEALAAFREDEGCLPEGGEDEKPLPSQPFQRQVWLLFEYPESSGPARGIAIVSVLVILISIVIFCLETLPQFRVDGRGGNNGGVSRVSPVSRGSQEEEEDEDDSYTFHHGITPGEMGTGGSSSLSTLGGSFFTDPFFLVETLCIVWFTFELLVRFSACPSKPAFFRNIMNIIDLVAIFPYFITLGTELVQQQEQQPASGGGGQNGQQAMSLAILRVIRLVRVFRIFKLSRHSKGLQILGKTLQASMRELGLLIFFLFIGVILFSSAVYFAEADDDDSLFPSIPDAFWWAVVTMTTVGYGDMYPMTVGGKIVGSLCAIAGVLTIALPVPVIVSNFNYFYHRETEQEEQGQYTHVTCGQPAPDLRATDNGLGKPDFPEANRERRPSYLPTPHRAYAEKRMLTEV
Chain of UniProt Q09470 (Q09470 whole entry): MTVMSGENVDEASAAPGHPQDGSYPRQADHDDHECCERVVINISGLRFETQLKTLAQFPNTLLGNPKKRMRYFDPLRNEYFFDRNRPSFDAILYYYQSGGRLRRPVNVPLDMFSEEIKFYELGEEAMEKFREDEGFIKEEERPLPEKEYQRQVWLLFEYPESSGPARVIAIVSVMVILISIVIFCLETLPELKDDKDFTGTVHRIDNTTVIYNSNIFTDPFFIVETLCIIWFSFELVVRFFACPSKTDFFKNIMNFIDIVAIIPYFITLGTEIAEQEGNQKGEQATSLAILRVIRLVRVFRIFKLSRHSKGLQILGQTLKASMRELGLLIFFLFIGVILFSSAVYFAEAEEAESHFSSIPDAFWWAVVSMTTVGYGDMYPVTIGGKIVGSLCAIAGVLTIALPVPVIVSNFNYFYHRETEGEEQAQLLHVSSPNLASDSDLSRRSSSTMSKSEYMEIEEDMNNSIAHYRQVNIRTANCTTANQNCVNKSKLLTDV
Chain of UniProt P16389 (P16389 whole entry): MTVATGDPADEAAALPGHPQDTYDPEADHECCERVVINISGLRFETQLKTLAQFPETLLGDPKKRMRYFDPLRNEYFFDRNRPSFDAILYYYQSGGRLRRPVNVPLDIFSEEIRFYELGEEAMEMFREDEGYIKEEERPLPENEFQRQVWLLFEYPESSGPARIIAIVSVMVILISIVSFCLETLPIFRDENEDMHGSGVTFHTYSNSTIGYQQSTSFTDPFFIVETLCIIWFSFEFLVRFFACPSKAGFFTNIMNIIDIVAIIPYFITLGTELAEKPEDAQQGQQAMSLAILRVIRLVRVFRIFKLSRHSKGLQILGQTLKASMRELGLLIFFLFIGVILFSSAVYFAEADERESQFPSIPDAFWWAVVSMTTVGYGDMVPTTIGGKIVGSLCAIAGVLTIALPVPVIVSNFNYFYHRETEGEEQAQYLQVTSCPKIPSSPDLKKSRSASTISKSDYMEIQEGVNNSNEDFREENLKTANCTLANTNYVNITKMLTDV
Chain of UniProt P07711 (P07711 114-288, chain 1 of 2): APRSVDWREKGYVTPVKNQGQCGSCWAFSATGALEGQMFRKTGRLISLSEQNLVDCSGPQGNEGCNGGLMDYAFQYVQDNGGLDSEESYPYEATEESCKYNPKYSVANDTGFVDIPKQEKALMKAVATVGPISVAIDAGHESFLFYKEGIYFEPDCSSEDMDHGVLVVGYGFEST
Chain of UniProt P07711 (P07711 292-333, chain 2 of 2): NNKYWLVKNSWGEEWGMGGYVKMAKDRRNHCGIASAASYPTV

Consider Trypsin inhibitor (from UniProt P20229), for which the Ki (commonly the dissociation constant of the complex between target and ligand, obtained from inhibition or displacement) with Trypsin (Bos taurus) [1] is 0.0035 nM.

Consider “Kalicludin-3 (AsKC3) (from UniProt Q9TWF8)”, for which, in the series with Trypsin (Bos taurus) [2], the Kd (commonly the free concentration of one partner at which half of the binding sites on the other are occupied at equilibrium, for simple one-to-one binding) is less than 30 nM.

In the case of “Kalicludin-1 (AsKC1) (from UniProt Q9TWG0)”, the Kd in the series with Trypsin (Bos taurus) [3] was less than 30 nM.

Consider OH-TCI (native) (from UniProt B6RLX2), for which the Ki (in series [4]; in the series with Trypsin (Bos taurus) [5]) was 170 nM each time.

In the case of Textilinin-2 (from UniProt Q90WA0), in the series with Plasmin (Homo sapiens) [6], the Ki was 2.2 nM.

As for NACI (from UniProt Q5ZPJ7), the Ki in series [7] was 25 nM.

Consider rBmKTT-2 (from UniProt P0DJ50), for which the Kd in the series with Trypsin (Bos taurus) [8] is 420 nM.

On to rLmKTT-1b (SdPI) (from UniProt P0DJ45), for which the Kd with Trypsin (Bos taurus) [9] is 160 nM.

For CBPTI-2 (from UniProt A8Y7N5), in the series with Trypsin (Bos taurus) [10], the Ki is 666 nM.

With rBmKTT-1 (from UniProt P0DJ49), in the series with Trypsin (Bos taurus) [11], the dissociation constant (Kd) was 136 nM.

Turning to Bt-KTI (from UniProt D8KY58), the Ki with Plasmin (Homo sapiens) [12] was 2.01 nM.

As to APHC1 (from UniProt B2G331), the Kd is 5000 nM in series [13] and 1000 nM in the series with Trypsin (Bos taurus) [14].

Equistatin (from UniProt P81439): the Ki with Cathepsin L was 0.051 nM; with Papain (Carica papaya) [15], 0.57 nM; in the series with Cathepsin B, 1.4 nM.

Regarding rLmKTT-1a (from UniProt P0DJ46), the Kd with Trypsin (Bos taurus) [16] is 140 nM.

With Bi-KTI (from UniProt G3LH89), the Ki with Plasmin (Homo sapiens) [17] is 3.6 nM.

In the case of “Kalicludin-2 (AsKC2) (from UniProt Q9TWF9)”, in the series with Trypsin (Bos taurus) [18], the Kd is less than 30 nM.

With Toxin I (from UniProt P00979), the Kd with Kv1.2, with Kv1.6 and in the series with Kv1.1 was less than 20 nM in each case.

Turning to Bungaruskunin (from UniProt B2KTG1), the Ki in series [19] is 6100 nM.

For Pr-mulgin 1 (from UniProt E7FL11), in the series with Metalloprotease 2, the Ki is 60 nM.

For “Trypsin inhibitor I (from UniProt P00991)”, the values for the Ki (in series [20]; with Trypsin (Bos taurus) [21]) were 270 nM and 0.34 nM, respectively.

CBPTI-1 (from UniProt A8Y7N4): the Ki with Trypsin (Bos taurus) [22] was 407 nM.

With rLmKTT-1c (from UniProt P0DJ48), the Kd with Trypsin (Bos taurus) [23] was 124 nM.

Consider “Equistatin N-terminal domain (from UniProt P81439)”, for which the Ki in the series with Papain (Carica papaya) [24] is 0.6 nM.

Dendrotoxin E (from UniProt P00984): the Kd in [25] is 100 nM; with Trypsin (Bos taurus) [26], 1 nM.

As for AvKTI (from UniProt Q8T3S7), the Ki with Trypsin (Bos taurus) [27] was 7.34 nM; in series [28] it was 169 nM; with Plasmin (Homo sapiens) [29], 4.89 nM; in [30] it was 37.8 nM.

For the substance Albumin-1 (from UniProt Q3T478), the Kd in the series with Trypsin (Bos taurus) [31] was 1.92 nM.

Turning to “Elastase inhibitor (from UniProt P16895)”, in [32], the Kd was 1 nM.

In the case of BF9 (from UniProt P25660), the Kd in [33] was 58 nM.

Consider ShPI-1 (from UniProt P31713), for which the Kd with Plasmin (Homo sapiens) [34] is 2.7 nM; with Trypsin (Bos taurus) [35], 0.11 nM; in series [36], 2.3 nM.

For Jn-IV (from UniProt P16344), in the series with Trypsin (Bos taurus) [37], the Kd is 9.6 nM.

For the substance rHg1 (from UniProt P0C8W3), the Kd in the series with Trypsin (Bos taurus) [38] is 107 nM.

Take CBPTI-3 (from UniProt A8Y7N6): the Ki in series [39] is 2.55 nM.

For “Elastase inhibitor AEI (from UniProt P16895)”, in [40], the Ki is 1000 nM.

SA5 II (from UniProt P10280): in the series with Trypsin (Bos taurus) [41], the Kd was 0.3 nM.

Take “Chymotrypsin inhibitor (from UniProt P00992)”: the Ki was 5100 nM in the series with Trypsin (Bos taurus) [42] and 4.3 nM in series [43].
